This note sets out measurements from US20250304712A1 (published 2025).

As usually defined, the Kd is the equilibrium constant for the complex coming apart.

The target in the assay is T1, recombinant LY6K protein with histidine and Strep tags (human, UniProt Q17RY6 18-138).
T1 chain: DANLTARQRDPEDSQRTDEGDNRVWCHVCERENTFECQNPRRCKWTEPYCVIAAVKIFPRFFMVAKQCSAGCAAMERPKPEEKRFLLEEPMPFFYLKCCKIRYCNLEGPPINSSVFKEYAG
In words: QCM.

B1: murine anti-LY6K antibody G57 (antibody, V domains shown)
VH: EVQLVESGGDLVKPGGSLKLSCAASGFTFNSYGMSWVRQTPDKRLEWVATISSGGTYTYYSDSVKGRFTISRDNAKNILYLHMSSLKSEDTAMYYCARHDWDFFDYWGQGTTLTVSS
VL: DVVMTQTPLSLPVSLGDQASISCRSSQSLVHTDGDTYLNWYLQKPGQSPKLLIYKVSNRFSGVPDRFSGSGSGTDFTLKIRRVEAEDLGVYFCSQNTHVYTFGGGTKLE
Turning to B1, the dissociation constant (Kd) was 1.34 nM.

B2: murine anti-LY6K antibody 28C1 (antibody, V domains shown)
VH: QIQLVQSGPELKKPGETVKISCKTSGYTFTNFAMNWVKQTPGKGLRYMGWINTNTGEPTYVEEFKGRFAFSLETSASTAYLQISNLKNEDTATYFCTREWRRSYYFDYWGQGTSLTVSS
VL: DIQMTQTPLSLPVSLGDQASISCRSSQTILHSNGNTYLEWYLQKPGQSLKLLIYKVSNRLSGVPDRFSGSGSGTDFTLKISRVEAEDLGVYYCFQGSHDPFTFGSGTKLE
As to B2, the equilibrium dissociation constant (Kd) amounted to 0.612 nM.

B3: murine anti-LY6K antibody 22C-G8 (antibody, V domains shown)
VH: QVQLQQPGAELAKPGASVKLSCKTSGYTFTSYWMHWVKQRPGQGFEWIGEINPSNGGANYNEKFKRKATLTVDKSSSTAYMQLRSLTSEDSAVYYCTMGGNFFFAYWGQGTSVTVSS
VL: not shown
On to B3, for which the Kd was determined as 0.243 nM.
